According to patent publication US20180133314A1 (Daiichi Sankyo, published 2018):

Key:
[1] = target: T1, human FGFR2 IIIc variant protein (human, UniProt P21802 22-821); assay: immunostaining of formalin-fixed, paraffin-embedded blocks of 293alpha cells forced to express FGFR2 IIIc; antibody at 15 ug/mL, heat retrieval
T1 construct: also called hFGFR2 IIIc

[2] = target: T2, human FGFR1 IIIc variant protein (human, UniProt P11362 22-822); assay: immunostaining of formalin-fixed, paraffin-embedded transfected 293alpha cell blocks (denatured), heat retrieval
[3] = target: T3, human FGFR3 IIIc variant protein (human, UniProt P22607 23-806); assay: as above
[4] = target: T4, human FGFR2 IIIb variant protein (human, UniProt P21802-3 22-822); assay: immunostaining of formalin-fixed, paraffin-embedded blocks of 293alpha cells forced to express FGFR2 IIIb; antibody at 15 ug/mL, heat retrieval
T4 construct: whole, on cells; also called hFGFR2 IIIb

[5] = target: T4, human FGFR2 IIIb variant protein; assay: as above; remark: listed apart in the source
[6] = target: T1, human FGFR2 IIIc variant protein; assay: immunostaining of formalin-fixed, paraffin-embedded blocks of 293alpha cells forced to express FGFR2 IIIc; antibody at 15 ug/mL, heat retrieval; remark: listed apart in the source
[7] = target: T3, human FGFR3 IIIc variant protein; assay: flow cytometry on transfected HEK293T cells (non-denatured)
Excerpt: (§1) The binding specificity of the mouse chimeric FR2-2nd_#028 and the mouse chimeric FR2-2nd_#023 prepared in Example 3)-7 for non-denatured molecules of the FGFR family was confirmed by flow cytometry. Each HEK293T cell suspension prepared in Example 3)-8-1 was centrifuged to remove a supernatant. Then, the pcDNA-DEST40-FGFR1 IIIb-, pcDNA-DEST40-FGFR1 IIIc-, pcDNA-DEST40-FGFR2 IIIb-, pcDNA-DEST40-FGFR2 IIIc-, pcDNA-DEST40-FGFR3 IIIb-, pcDNA-DEST40-FGFR3 IIIc-, pcDNA-DEST40-FGFR4-, or pcDNA-DEST40-transfected HEK293T cells were suspended by the addition of a negative control mouse IgG1 (manufactured by R&D Systems, Inc.) or the mouse chimeric FR2-2nd_#028 or the mouse chimeric FR2-2nd_#023 adjusted to 5 μg/ml, and left standing at 4° C. for 1 hour. The cells were washed once with PBS containing 5% FBS, then suspended by the addition of Fluorescein-Conjugated Goat IgG Fraction to Mouse IgG (manufactured by MP Biomedicals, Inc.) diluted 500-fold with PBS containing 5% FBS, and left standing at 4° C. for 1 hour. […] The data was analyzed using Flowjo (manufactured by Tree Star Inc.). After removal of 7-aminoactinomycin D-positive dead cells by gating, the average fluorescence intensity (MFI) of the FITC of live cells was calculated (FIG. 1).

[8] = target: T2, human FGFR1 IIIc variant protein; assay: immunostaining of formalin-fixed, paraffin-embedded transfected 293alpha cell blocks (denatured), proteinase K retrieval
[9] = target: T4, human FGFR2 IIIb variant protein; assay: as above
[10] = target: T3, human FGFR3 IIIc variant protein; assay: as above
[11] = target: T1, human FGFR2 IIIc variant protein; assay: flow cytometry, hybridoma culture supernatant on transfected HEK293T cells
Procedure: HEK293T cells were inoculated at a density of 5×10⁴ cells/cm² to a 225-cm² flask (manufactured by Sumitomo Bakelite Co., Ltd.) and cultured overnight at 37° C. under 5% CO₂ conditions in a DMEM medium containing 10% FBS. On the next day, the pcDNA-DEST40-FGFR2 IIIc, the pcDNA-DEST40-FGFR2 IIIb or a control pcDNA-DEST40 was transfected to the HEK293T cells using Lipofectamine 2000, and the cells were further cultured overnight at 37° C. under 5% CO₂ conditions. On the next day, the expression vector-transfected HEK293T cells were treated with TrypLE Express (manufactured by Life Technologies Corp.), washed with DMEM containing 10% FBS, and then suspended in PBS containing 5% FBS. The obtained cell suspension was used in flow cytometry analysis.
The pcDNA-DEST40-FGFR2 IIIc and pcDNA-DEST40-FGFR2 IIIb binding specificity of the antibody produced by each hybridoma determined to be positive by Cell-ELISA in Example 1)-4 was further confirmed by flow cytometry. Each HEK293T cell suspension prepared in Example 1)-5-1 was centrifuged to remove a supernatant. […] The data was analyzed using Flowjo (manufactured by Tree Star Inc.). After removal of 7-aminoactinomycin D-positive dead cells by gating, the FITC fluorescence intensity of live cells was plotted to a histogram.

[12] = target: T4, human FGFR2 IIIb variant protein; assay: flow cytometry on transfected HEK293T cells (non-denatured)
Excerpt: as §1

[13] = target: T1, human FGFR2 IIIc variant protein; assay: immunostaining of formalin-fixed, paraffin-embedded transfected 293alpha cell blocks (denatured), 15 µg/mL
Procedure: The cells were transfected with the FGFR1 IIIb, FGFR1 IIIc, FGFR2 IIIb, FGFR2 IIIc, FGFR3 IIIb, FGFR3 IIIc, or FGFR4 expression vector constructed in Examples 1)-3-1, 1)-3-2, and 1)-3-3 or an empty vector, i.e., pcDNA-DEST40-FGFR1 IIIb, pcDNA-DEST40-FGFR1 IIIc, pcDNA-DEST40-FGFR2 IIIb, pcDNA-DEST40-FGFR2 IIIc, pcDNA-DEST40-FGFR3 IIIb, pcDNA-DEST40-FGFR3 IIIc, pcDNA-DEST40-FGFR4, or pcDNA-DEST40 using FuGENE 6 (manufactured by Roche Diagnostics K.K.) and cultured for two nights at 37° C. under 5% CO₂ conditions. The obtained cells were recovered using TrypLE Express (manufactured by Life Technologies Corp.) and centrifuged to obtain a pellet, which was then washed once with PBS and centrifuged. The resulting pellet was fixed in 20% neutral buffered formalin.
Each sample was stained using an automatic staining apparatus (LEICA BOND-III; manufactured by Leica Biosystems Nussloch GmbH). For deparaffinization, the sample was heated to 72° C., then Bond Dewax Solution (manufactured by Leica Biosystems Nussloch GmbH) was added thereto, and the sample was incubated for 30 seconds, followed by addition of ethanol and washing 4 times with Bond Wash Solution (manufactured by Leica Biosystems Nussloch GmbH). Enzyme Proteinase K (IHC) (manufactured by Leica Biosystems Nussloch GmbH) diluted 200-fold was added thereto, and the sample was incubated at 37° C. for 5 minutes. […]

T4 sequence (P21802 other isoform, or with tags, fused parts or gaps mutant limits assumed): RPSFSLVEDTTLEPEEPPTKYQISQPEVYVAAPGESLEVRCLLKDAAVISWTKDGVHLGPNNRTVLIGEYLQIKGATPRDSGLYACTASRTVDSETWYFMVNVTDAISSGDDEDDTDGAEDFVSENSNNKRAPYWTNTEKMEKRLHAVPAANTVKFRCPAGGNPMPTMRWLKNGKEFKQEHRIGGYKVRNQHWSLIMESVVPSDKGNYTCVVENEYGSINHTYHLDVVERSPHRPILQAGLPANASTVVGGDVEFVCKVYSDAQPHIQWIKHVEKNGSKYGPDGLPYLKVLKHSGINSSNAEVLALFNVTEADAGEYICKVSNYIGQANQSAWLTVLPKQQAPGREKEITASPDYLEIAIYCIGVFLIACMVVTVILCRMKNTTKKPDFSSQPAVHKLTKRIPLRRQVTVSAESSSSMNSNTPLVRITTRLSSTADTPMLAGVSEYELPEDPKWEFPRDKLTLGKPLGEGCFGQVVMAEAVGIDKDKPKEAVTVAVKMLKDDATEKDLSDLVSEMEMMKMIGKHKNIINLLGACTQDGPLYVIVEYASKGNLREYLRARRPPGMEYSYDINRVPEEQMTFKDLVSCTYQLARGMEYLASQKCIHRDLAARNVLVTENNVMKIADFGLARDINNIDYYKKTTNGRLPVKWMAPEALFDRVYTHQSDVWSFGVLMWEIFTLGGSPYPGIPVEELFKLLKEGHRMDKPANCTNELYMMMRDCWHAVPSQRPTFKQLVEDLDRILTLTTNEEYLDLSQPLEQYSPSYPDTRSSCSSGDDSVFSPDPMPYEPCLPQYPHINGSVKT
T3 sequence (P22607 23-806 limits assumed, change not shown): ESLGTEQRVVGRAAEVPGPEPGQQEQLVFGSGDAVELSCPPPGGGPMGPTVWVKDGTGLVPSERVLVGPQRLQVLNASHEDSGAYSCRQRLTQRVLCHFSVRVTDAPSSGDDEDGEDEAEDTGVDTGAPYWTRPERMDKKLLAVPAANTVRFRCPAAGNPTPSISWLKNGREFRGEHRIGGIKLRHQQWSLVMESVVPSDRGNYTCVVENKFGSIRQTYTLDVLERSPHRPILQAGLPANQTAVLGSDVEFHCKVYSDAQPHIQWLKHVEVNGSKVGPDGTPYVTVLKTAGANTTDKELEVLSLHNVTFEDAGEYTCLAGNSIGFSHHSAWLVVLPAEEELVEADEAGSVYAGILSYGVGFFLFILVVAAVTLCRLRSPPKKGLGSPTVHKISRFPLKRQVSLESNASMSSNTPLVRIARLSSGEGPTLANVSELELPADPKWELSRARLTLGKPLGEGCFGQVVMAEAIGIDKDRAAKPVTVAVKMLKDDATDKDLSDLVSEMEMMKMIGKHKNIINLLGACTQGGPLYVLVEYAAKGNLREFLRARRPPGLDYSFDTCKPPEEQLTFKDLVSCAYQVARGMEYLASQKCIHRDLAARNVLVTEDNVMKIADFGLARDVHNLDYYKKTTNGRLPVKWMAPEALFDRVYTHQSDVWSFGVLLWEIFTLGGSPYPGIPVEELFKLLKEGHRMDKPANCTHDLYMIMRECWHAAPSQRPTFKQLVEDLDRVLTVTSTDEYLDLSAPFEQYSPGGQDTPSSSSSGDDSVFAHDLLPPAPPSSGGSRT
T1 sequence (P21802 22-821 limits assumed, change not shown): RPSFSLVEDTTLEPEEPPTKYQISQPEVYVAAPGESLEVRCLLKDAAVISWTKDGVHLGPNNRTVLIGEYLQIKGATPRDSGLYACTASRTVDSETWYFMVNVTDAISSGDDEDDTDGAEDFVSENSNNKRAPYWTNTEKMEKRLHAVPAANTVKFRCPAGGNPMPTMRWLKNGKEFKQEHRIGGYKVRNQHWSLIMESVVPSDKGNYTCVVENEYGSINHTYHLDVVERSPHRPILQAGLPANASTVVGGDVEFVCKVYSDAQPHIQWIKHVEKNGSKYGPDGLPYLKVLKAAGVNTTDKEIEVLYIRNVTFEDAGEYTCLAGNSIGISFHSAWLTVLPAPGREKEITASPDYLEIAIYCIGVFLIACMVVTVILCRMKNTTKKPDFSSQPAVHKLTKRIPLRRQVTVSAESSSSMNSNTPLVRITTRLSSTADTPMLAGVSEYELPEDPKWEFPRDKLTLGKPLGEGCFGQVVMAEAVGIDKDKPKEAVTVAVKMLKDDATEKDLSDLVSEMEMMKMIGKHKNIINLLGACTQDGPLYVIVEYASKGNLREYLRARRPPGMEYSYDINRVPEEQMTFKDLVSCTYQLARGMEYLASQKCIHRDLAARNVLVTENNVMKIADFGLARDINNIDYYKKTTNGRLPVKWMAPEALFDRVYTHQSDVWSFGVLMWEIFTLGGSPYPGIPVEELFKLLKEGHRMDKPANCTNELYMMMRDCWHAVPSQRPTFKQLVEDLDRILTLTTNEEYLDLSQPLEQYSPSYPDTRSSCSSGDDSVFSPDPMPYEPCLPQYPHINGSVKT
T2 sequence (P11362 22-822 limits assumed, change not shown): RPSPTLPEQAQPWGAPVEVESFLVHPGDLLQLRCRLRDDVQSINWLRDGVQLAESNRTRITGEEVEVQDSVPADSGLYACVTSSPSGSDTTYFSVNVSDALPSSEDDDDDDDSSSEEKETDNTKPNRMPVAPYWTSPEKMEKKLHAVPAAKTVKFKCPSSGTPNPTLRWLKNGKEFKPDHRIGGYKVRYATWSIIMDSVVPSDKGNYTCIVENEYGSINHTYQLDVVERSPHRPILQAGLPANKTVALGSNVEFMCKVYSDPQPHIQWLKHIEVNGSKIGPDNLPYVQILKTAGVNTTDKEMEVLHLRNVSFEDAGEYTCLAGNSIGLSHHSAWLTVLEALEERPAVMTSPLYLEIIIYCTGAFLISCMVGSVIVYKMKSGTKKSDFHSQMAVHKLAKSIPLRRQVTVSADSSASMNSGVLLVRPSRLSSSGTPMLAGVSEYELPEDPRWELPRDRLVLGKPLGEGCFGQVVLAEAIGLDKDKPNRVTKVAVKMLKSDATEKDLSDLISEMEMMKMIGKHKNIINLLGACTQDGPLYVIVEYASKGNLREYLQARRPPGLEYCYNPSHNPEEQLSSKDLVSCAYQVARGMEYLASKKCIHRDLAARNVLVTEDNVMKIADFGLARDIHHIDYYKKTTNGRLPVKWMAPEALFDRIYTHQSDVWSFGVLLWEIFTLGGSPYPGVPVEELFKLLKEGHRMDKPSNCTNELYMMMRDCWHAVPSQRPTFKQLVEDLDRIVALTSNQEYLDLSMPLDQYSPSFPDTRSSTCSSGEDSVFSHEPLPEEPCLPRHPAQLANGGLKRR

B1: rat anti-FGFR2 antibody FR2-2nd_#023 (antibody, V domains shown)
VH: EVQLVESGGGLVQPGRSMKLSCAASGLTFSNYGMAWVRQAPKKGLEWVAFISHDGGSSYYRDSVEGRFIISRDNAKSTLSLQMDSLRSEDTATYYCTTAGDYYSDNDWYFDFWGPGIMVTVSS
VL: DIQMTQSPSLLSASVGDRVTLSCKASQSIYNSLAWYQQKLGEAPKLLIYDADSLQTGIPSRFSGSGSGTDYTLTISSLQPEDVATYFCQKYYSGWTFGGGTKLELKR
notes: Rat monoclonal from hybridoma; also called rat FR2-2nd_#023; rat antibody FR2-2nd_#023
- binding result [1]: binds
- binding result [2]: no binding (tested: 15 µg/mL)
- binding result [3]: no binding (tested: 15 µg/mL)
- binding result [4]: binds

B2: mouse chimeric anti-FGFR2 antibody FR2-2nd_#023 (antibody, mouse IgG1, kappa, V domains shown)
VH: EVQLVESGGGLVQPGRSMKLSCAASGLTFSNYGMAWVRQAPKKGLEWVAFISHDGGSSYYRDSVEGRFIISRDNAKSTLSLQMDSLRSEDTATYYCTTAGDYYSDNDWYFDFWGPGIMVTVSS
VL: DIQMTQSPSLLSASVGDRVTLSCKASQSIYNSLAWYQQKLGEAPKLLIYDADSLQTGIPSRFSGSGSGTDYTLTISSLQPEDVATYFCQKYYSGWTFGGGTKLELKR
notes: The full-chain entries may include a secretory signal; also called mouse chimeric FR2-2nd_#023; mouse IgG1 chimeric FR2-2nd_#023
- binding result [5]: binds
- binding result [6]: binds
- binding result [2]: no binding (tested: 15 µg/mL)
- binding result [7]: no binding (tested: 5 µg/ml)

B3: rat anti-FGFR2 antibody FR2-2nd_#028 (antibody, V domains shown)
VH: EVQLVESGGGLVQPGRSLKLSCAASGFTFSDYGMAWVRQAPTKGLEWVATISYDGSSTYYRDSVKGRFTISRENAKSTLSLQMDSLRSEDTATYYCTRHPTYYYIMDAWGQGASVTVSS
VL: DTVLTQSPALAVSLGQRVTISCRASKSVSTFMNWYQQKSGQQPKLLIYRASNLESGVPSRFSGSGSGTDFTLTIDPVEADDIANYYCQQSNELPLTFGSGTKLEIKR
notes: Rat monoclonal from hybridoma; also called rat FR2-2nd_#028; rat antibody FR2-2nd_#028
- binding result [8]: no binding (tested: 15 µg/mL)
- binding result [9]: no binding (tested: 15 µg/mL)
- binding result [10]: no binding (tested: 15 µg/mL)
- binding result [11]: binds

B4: mouse chimeric anti-FGFR2 antibody FR2-2nd_#028 (antibody, mouse IgG1, kappa, V domains shown)
VH: EVQLVESGGGLVQPGRSLKLSCAASGFTFSDYGMAWVRQAPTKGLEWVATISYDGSSTYYRDSVKGRFTISRENAKSTLSLQMDSLRSEDTATYYCTRHPTYYYIMDAWGQGASVTVSS
VL: DTVLTQSPALAVSLGQRVTISCRASKSVSTFMNWYQQKSGQQPKLLIYRASNLESGVPSRFSGSGSGTDFTLTIDPVEADDIANYYCQQSNELPLTFGSGTKLEIKR
notes: The full-chain entries may include a secretory signal; also called mouse chimeric FR2-2nd_#028; mouse IgG1 chimeric FR2-2nd_#028
- binding result [8]: no binding (tested: 15 µg/mL)
- binding result [10]: no binding (tested: 15 µg/mL)
- binding result [12]: no binding (tested: 5 µg/ml)
- binding result [13]: binds
